Consider one molecule from paper PMC3059340 (Analytical chemistry, 2011).

The target of the test is T1, Recombinant human E-selectin/Fc chimera (human, UniProt P16581 22-556).
T1 sequence (looked up): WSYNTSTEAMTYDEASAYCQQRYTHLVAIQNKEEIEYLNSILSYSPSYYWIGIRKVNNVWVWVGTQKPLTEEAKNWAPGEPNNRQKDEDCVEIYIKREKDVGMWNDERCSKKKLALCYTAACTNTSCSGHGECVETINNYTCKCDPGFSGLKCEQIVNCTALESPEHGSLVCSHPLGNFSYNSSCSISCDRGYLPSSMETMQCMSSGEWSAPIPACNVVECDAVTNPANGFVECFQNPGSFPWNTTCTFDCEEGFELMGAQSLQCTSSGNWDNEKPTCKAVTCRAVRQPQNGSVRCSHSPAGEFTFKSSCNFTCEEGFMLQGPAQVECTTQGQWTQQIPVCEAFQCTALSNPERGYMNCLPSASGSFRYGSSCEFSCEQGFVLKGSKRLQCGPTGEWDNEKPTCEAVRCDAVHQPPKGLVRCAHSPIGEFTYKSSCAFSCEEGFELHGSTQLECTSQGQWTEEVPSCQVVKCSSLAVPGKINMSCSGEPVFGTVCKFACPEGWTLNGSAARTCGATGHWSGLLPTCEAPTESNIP
Kind of test: SPR.

Turning to SETTTGTSSNSSQSTSNSGLAPNPTNATTKAAG (natural protein, UniProt P25063 27-59, looked up) [Recombinant human CD24], the Ka was determined as 3.18e+08 M⁻¹, the Kd amounted to 3.4 nM, the koff stood at 0.0016 s⁻¹ and the kon amounted to 379000 M⁻¹ s⁻¹.
